Reference: patent US20070111258A1, “Compositions and methods for modulating the acute phase response” (priority 2005, published 2007)

Columns and labels:
[1] = system: UPRE motif; experiment: UPRE luciferase reporter in H2.35 cells; type: cell-based
Experimental: FIG. 10 depicts activation of expression of APR genes in vivo. (A) The nuclear form of CREBH or ATF6 activates expression of the endogenous SAP mRNA in mice. Northern blot analysis of the endogenous SAP mRNA in mice injected with vector expressing the nuclear form of ATF6 (ATF6 p50) or CREBH (CREBH-N). Wild-type C57BL/6J mice at 3 months of age were injected with 80 μg plasmid DNA expressing ATF6 p50, CREBH-N or empty vector DNA through hydrodynamic plasmid DNA tail-vein injection (Miao et al. 2004). Liver samples were collected from mice at 36 hours after injection, and were subjected to Northern blot analysis to detect the murine SAP mRNA levels. Experiments were performed at least 3 times and representative data is shown. (B-C) Nuclear forms of CREBH and ATF6 act synergistically to induce transcription from the human CRP promoter and the UPRE motif. To detect synergistic effects of CREBH and ATF6 on expression of the reporter, vector DNA (15 ng control vector, 10 ng CREBH- and/or 15 ng AFT6-expression vector) was mixed with 100 ng reporter construct and 150 ng pcDNA3-lacZ for transfection of H2.35 cells in one well of a 6-well plate. […]
At 36 h post transfection, transfected cells were lysed and assayed for luciferase and β-galactosidase activity by using a Tropix Luciferase/β-Galactosidase Dual Light. […] Photons were detected in an Optima II Luminator (MGM Instruments). […]

[2] = system: human CRP promoter; experiment: Human CRP promoter luciferase reporter in H2.35 cells; type: cell-based
Experimental: (§1) FIG. 10 depicts activation of expression of APR genes in vivo. (A) The nuclear form of CREBH or ATF6 activates expression of the endogenous SAP mRNA in mice. Northern blot analysis of the endogenous SAP mRNA in mice injected with vector expressing the nuclear form of ATF6 (ATF6 p50) or CREBH (CREBH-N). Wild-type C57BL/6J mice at 3 months of age were injected with 80 μg plasmid DNA expressing ATF6 p50, CREBH-N or empty vector DNA through hydrodynamic plasmid DNA tail-vein injection (Miao et al. 2004). Liver samples were collected from mice at 36 hours after injection, and were subjected to Northern blot analysis to detect the murine SAP mRNA levels. Experiments were performed at least 3 times and representative data is shown. (B-C) Nuclear forms of CREBH and ATF6 act synergistically to induce transcription from the human CRP promoter and the UPRE motif. To detect synergistic effects of CREBH and ATF6 on expression of the reporter, vector DNA (15 ng control vector, 10 ng CREBH- and/or 15 ng AFT6-expression vector) was mixed with 100 ng reporter construct and 150 ng pcDNA3-lacZ for transfection of H2.35 cells in one well of a 6-well plate. The amount of luciferase activity was normalized to the amount of β-galactosidase activity.
FIG. 11 depicts the synergistic interaction of CREBH with ATF6 to activate transcription of the major APR genes. (A) Luciferase reporter analysis of trans-activation effects of CREBH on promoters of the murine SAP gene and the human CRP gene in H2.35 cells. H2.35 cells in a 35 mm collagen-coated plate were co-transfected with a control vector or a CREBH expression vector (0.25 μg), the luciferase reporter (0.6 μg) and pcDNA3-LacZ (0.25 μg), and were then cultured in the absence or presence of Tm (5 μg/ml) for 10 hours. (B) CREBH-DN efficiently suppresses CREBH trans-activation on the murine SAP and the human CRP promoters. H2.35 cells were co-transfected with the luciferase reporter construct and a control vector or a vector expressing CREBH-DN, and were then cultured in the absence or presence of Tm (5 μg/ml) for 10 hours. (C) Interaction between ATF6 and CREBH was determined by IP-Western blot analysis. 293T cells were transfected with a control vector or a vector expressing the nuclear/cleaved form of CREBH, and were then cultured in the absence or presence of Tm for 8 hours. Total cell lysates were immunoprecipated by using an anti-human ATF6 polyclonal antibody or an anti-flag antibody and were then subjected to Western blot analysis by using anti-flag antibody or anti-human ATF6 antibody. Expression levels of CREBH in the transfected cells were determined by Western blot analysis of total cell lysates using the anti-flag antibody (lower panel). (D) Luciferase reporter analysis showing trans-activation effects of the nuclear forms of ATF6 or CREBH on the murine SAP and human CRP promoters in H2.35 cells. H2.35 cells in a 35 mm collagen-coated plate were co-transfected with a vector expressing ATF6 p50 or CREBH-N (0.25 μg), the luciferase reporter (0.6 μg) and pcDNA3-LacZ (0.25 μg). (E-F) Luciferase reporter analysis showing synergistic effects of CREBH and ATF6 on transcriptional induction from the murine SAP promoter (E), and the human CRP promoter (F) in H2.35 cells. […]

[3] = system: murine SAP promoter; experiment: Murine SAP promoter luciferase reporter in H2.35 cells; type: cell-based
Experimental: FIG. 11 depicts the synergistic interaction of CREBH with ATF6 to activate transcription of the major APR genes. (A) Luciferase reporter analysis of trans-activation effects of CREBH on promoters of the murine SAP gene and the human CRP gene in H2.35 cells. H2.35 cells in a 35 mm collagen-coated plate were co-transfected with a control vector or a CREBH expression vector (0.25 μg), the luciferase reporter (0.6 μg) and pcDNA3-LacZ (0.25 μg), and were then cultured in the absence or presence of Tm (5 μg/ml) for 10 hours. (B) CREBH-DN efficiently suppresses CREBH trans-activation on the murine SAP and the human CRP promoters. H2.35 cells were co-transfected with the luciferase reporter construct and a control vector or a vector expressing CREBH-DN, and were then cultured in the absence or presence of Tm (5 μg/ml) for 10 hours. (C) Interaction between ATF6 and CREBH was determined by IP-Western blot analysis. 293T cells were transfected with a control vector or a vector expressing the nuclear/cleaved form of CREBH, and were then cultured in the absence or presence of Tm for 8 hours. Total cell lysates were immunoprecipated by using an anti-human ATF6 polyclonal antibody or an anti-flag antibody and were then subjected to Western blot analysis by using anti-flag antibody or anti-human ATF6 antibody. Expression levels of CREBH in the transfected cells were determined by Western blot analysis of total cell lysates using the anti-flag antibody (lower panel). (D) Luciferase reporter analysis showing trans-activation effects of the nuclear forms of ATF6 or CREBH on the murine SAP and human CRP promoters in H2.35 cells. H2.35 cells in a 35 mm collagen-coated plate were co-transfected with a vector expressing ATF6 p50 or CREBH-N (0.25 μg), the luciferase reporter (0.6 μg) and pcDNA3-LacZ (0.25 μg). (E-F) Luciferase reporter analysis showing synergistic effects of CREBH and ATF6 on transcriptional induction from the murine SAP promoter (E), and the human CRP promoter (F) in H2.35 cells. To detect synergistic effects of CREBH and ATF6 on reporter gene expression, vector DNA (25 ng control vector, 20 ng CREBH- and/or 25 ng ATF6-expression vector) was mixed with 100 ng reporter construct and 150 ng pcDNA3-lacZ for transfection of H2.35 cells in a 35 mm collagen-coated plate.
Plasmids, pME18S, pME-CREBH Full and pME-CRE1H d™ were kindly provided by Dr. Sumio Sugano (Institute of Medical Science, University of Tokyo, Japan) (Omori et al., 2001). Plasmid pFlag-CREBH Full that expresses a full-length CREBH (amino acids 1-455) was constructed by insertion of a PCR product from pME-CREBH Full into expression vector pFlag-CMV-4 between EcoR I and BamH I. Vector pFlag-CMV-4 is designed for stable, cytoplasmic expression of N-terminal flag fusion proteins in mammalian cells (purchased from Sigma-Aldrich). Plasmid pFlag-CREBH-ΔC that expresses the nuclear form of CREBH (amino acids 1-320) was constructed by insertion of a PCR product from pME-CREBH d™ into pFlag-CMV-4 between EcoR I and BamH I. Plasmid pFlag-CREBH-DN that expresses only the CREBH bZIP domain (amino acids 209-320) was constructed by insertion of a PCR product from pME-CREBH Full into pFlag-CMV-4 between EcoR I and BamH I. The reporter plasmid containing the luciferase gene under control of the human CRP gene, pGL3-CRP, was constructed by insertion of a 637 bp fragment containing 5′-flanking and promoter region of the human CRP gene into luciferase reporter vector pGL3-basic (purchased from Promega, Madison, Wis.) between Sac I and Xho I. The 637 bp 5′-flanking fragment of the human CRP gene was amplified from human genomic DNA by using a forward primer: 5′-[…]-3′; and a reverse primer 5′-[…]-3′. The reporter plasmid containing the luciferase gene under control of the mouse SAP gene, pGL3-SAP, was constructed by insertion of an 863 bp fragment containing 5′-flanking and promoter region of the mouse SAP gene into pGL3-basic between Xho I and Hind III. […]

[4] = system: murine SAP mRNA; experiment: Endogenous SAP mRNA in liver after hydrodynamic plasmid DNA tail-vein injection (Northern blot); type: in vivo, mouse; settings: wild-type mice; 80 μg plasmid DNA tail vein injection; 36 hours
Experimental: as §1

[5] = system: UPRE motif; experiment: UPRE luciferase reporter analysis in COS7 cells; type: cell-based; settings: for activation of luciferase expression from UPRE reporter relative to vector control: absence of Tm
[6] = H2.35 cells, Tm 5 μg/ml 10 hours, endogenous CREBH
[7] = co-expression with ATF6 p50, absence or presence of ER stress
[8] = co-expression with full-length or cleaved CREBH, absence or presence of ER stress

B1: CREBH-DN: dominant negative truncated CREBH, only the bZIP domain (amino acids 209-320), expressed from plasmid pFlag-CREBH-DN (protein, UniProt Q68CJ9 209-320, looked up, fragment)
chain: HCQELVLTEDEKKLLAKEGITLPTQLPLTKYEERVLKKIRRKIRNKQSAQESRKKKKEYIDGLETRMSACTAQNQELQRKVLHLEKQNLSLLEQLKKLQAIVVQSTSKSAQT
modifications: bZIP domain Flag tag
notes: dominant negative truncated CREBH, only the bZIP domain (amino acids 209-320), expressed from plasmid pFlag-CREBH-DN
[1]; co-expression with ATF6 p50
  ATF6-mediated trans-activation on the UPRE reporter: efficiently suppressed ATF6-mediated trans-activation
[1]; co-expression with cleaved CREBH
  CREBH-induced reporter gene expression, UPRE reporter: significantly suppressed the ability for CREBH to induce reporter gene expression
[2]; [6]
  luciferase expression from the human CRP promoter in response to ER stress: efficiently suppressed luciferase expression
[2]; [7]
  ATF6-mediated trans-activation on the CRP reporter: efficiently suppressed ATF6-mediated trans-activation
[2]; [8]
  CREBH-induced reporter gene expression, CRP reporter: significantly suppressed the ability for CREBH to induce reporter gene expression
[3]; [6]
  luciferase expression from the murine SAP promoter in response to ER stress: efficiently suppressed luciferase expression
[3]; [7]
  ATF6-mediated trans-activation on the SAP reporter: efficiently suppressed ATF6-mediated trans-activation
[3]; [8]
  CREBH-induced reporter gene expression, SAP reporter: significantly suppressed the ability for CREBH to induce reporter gene expression

B2: CREBH-N: nuclear/cleaved form of CREBH (amino acids 1-320) expressed from a vector (protein, UniProt Q68CJ9 1-320, looked up, fragment)
chain: MNTDLAAGKMASAACSMDPIDSFELLDLLFDRQDGILRHVELGEGWGHVKDQQVLPNPDSDDFLSSILGSGDSLPSSPLWSPEGSDSGISEDLPSDPQDTPPRSGPATSPAGCHPAQPGKGPCLSYHPGNSCSTTTPGPVIQVPEASVTIDLEMWSPGGRICAEKPADPVDLSPRCNLTVKDLLLSGSSGDLQQHHLGASYLLRPGAGHCQELVLTEDEKKLLAKEGITLPTQLPLTKYEERVLKKIRRKIRNKQSAQESRKKKKEYIDGLETRMSACTAQNQELQRKVLHLEKQNLSLLEQLKKLQAIVVQSTSKSAQT
[2]; H2.35 cells
  expression of luciferase from the CRP reporter compared to the controls: ~11 fold
[4]
  murine SAP mRNA in the liver compared to control vector: higher levels of the murine SAP mRNA
[5]
  activation of luciferase expression from UPRE reporter relative to vector control: approximately 18 fold
[3]; H2.35 cells, without Tm
  expression of luciferase from the SAP reporter relative to vector control: approximately 16 fold

B3: CREBH-F: flag-tagged full-length CREBH (amino acids 1-455) expressed from a transfected vector (protein, UniProt Q68CJ9 1-461, looked up)
chain: MNTDLAAGKMASAACSMDPIDSFELLDLLFDRQDGILRHVELGEGWGHVKDQQVLPNPDSDDFLSSILGSGDSLPSSPLWSPEGSDSGISEDLPSDPQDTPPRSGPATSPAGCHPAQPGKGPCLSYHPGNSCSTTTPGPVIQVPEASVTIDLEMWSPGGRICAEKPADPVDLSPRCNLTVKDLLLSGSSGDLQQHHLGASYLLRPGAGHCQELVLTEDEKKLLAKEGITLPTQLPLTKYEERVLKKIRRKIRNKQSAQESRKKKKEYIDGLETRMSACTAQNQELQRKVLHLEKQNLSLLEQLKKLQAIVVQSTSKSAQTGTCVAVLLLSFALIILPSISPFGPNKTESPGDFAPVRVFSRTLHNDAASRVAADAVPGSEAPGPRPEADTTREESPGSPGADWGFQDTANLTNSTEELDNATLVLRNATEGLGQVALLDWVAPGPSTGSGRAGLEAAGDEL
modifications: full-length Flag tag
notes: flag-tagged full-length CREBH (amino acids 1-455) expressed from a transfected vector
[2]; H2.35 cells, expression of CREBH
  expression of luciferase under control of the human CRP promoter: significantly activated
[5]
  activation of luciferase expression from UPRE reporter relative to vector control: approximately 2 fold
[5]; after Tm treatment, 10 hours
  activation of luciferase expression from UPRE reporter: more than 10 fold
[3]; H2.35 cells, Tm 5 μg/ml 10 hours
  expression of luciferase from the SAP reporter relative to vector control: approximately 14 fold
[3]; H2.35 cells, without Tm
  expression of luciferase from the SAP reporter relative to vector control: approximately 2.5 fold
